In patent US20230192896A1 (BIOVERATIV THERAPEUTICS, published 2023):

B1: BIIB-9-1285 (antibody, V domains shown)
VH: QVQLVQSGAEVKKPGASVKVSCKASGYTFTSYYMVWVRQAPGQGLEWMGIINPSGGSTSYAQKFQGRVTMTRDTSTSTVYMELSSLRSEDTAVYYCARVPTYRYSYLAFDIWGQGTMVTVSS
VL: EIVMTQSPATLSVSPGERATLSCRASQSVSSNLAWYQQKPGQAPRLLIYGASTRATGIPARFSGSGSGTEFTLTISSLQSEDFAVYYCQQASNFPPTFGGGTKVEIK
notes: IgG
B2: BIIB-9-1283 (antibody, V domains shown)
VH: QVQLVQSGAEVKKPGASVKVSCKASGYTFTSYYMVWVRQAPGQGLEWMGIINPSGGSTSYAQKFQGRVTMTRDTSTSTVYMELSSLRSEDTAVYYCARVPTYRYSYLAFDIWGQGTMVTVSS
VL: DIQMTQSPSSVSASVGDRVTITCRASQGISSWLAWYQQKPGKAPKLLIYAASSLQSGVPSRFSGSGSGTDFTLTISSLQPEDFATYYCQQASSFPPTFGGGTKVEIK
notes: IgG
B3: BIIB-9-1279 (antibody, V domains shown)
VH: QVQLVQSGAEVKKPGASVKVSCKASGYTFTSYYMHWVRQAPGQGLEWMGIINPSGGSTSYAQKFQGRVTMTRDTSTSTVYMELSSLRSEDTAVYYCARGPTDSSGYLDMDVWGKGTTVTVSS
VL: DIQMTQSPSSVSASVGDRVTITCRASQGISSWLAWYQQKPGKAPKLLIYAASSLQSGVPSRFSGSGSGTDFTLTISSLQPEDFATYYCQQASSFPPTFGGGTKVEIK
notes: IgG
B4: BIIB-9-1281 (antibody, V domains shown)
VH: QVQLQQWGAGLLKPSETLSLTCAVYGGSFSGYYWSWIRQPPGKGLEWIGEIDHSGSTNYNPSLKSRVTISVDTSKNQFSLKLSSVTAADTAVYYCARTTRSKYYGMDVWGQGTMVTVSS
VL: DIQMTQSPSTLSASVGDRVTITCRASQSISSWLAWYQQKPGKAPKLLIYKASSLESGVPSRFSGSGSGTDFTLTISSLQPEDFATYYCQQAISLPITFGGGTKVEIK
notes: IgG
B5: BIIB-9-1287 (antibody, V domains shown)
VH: QLQLQESGPGLVKPSETLSLTCTVSGGSISSSDYYWGWIRQPPGKGLEWIGSIYYSGSTYYNPSLKSRVTISVDTSKNQFSLKLSSVTAADTAVYYCARSPRHKVRGPNWFDPWGQGTLVTVSS
VL: EIVLTQSPGTLSLSPGERATLSCRASQSVSSSYLAWYQQKPGQAPRLLIYGASSRATGIPDRFSGSGSGTDFTLTISRLEPEDFAVYYCQQYHLHPTFGGGTKVEIK
notes: IgG
B6: BIIB-9-3595 (antibody, V domains shown)
VH: EVQLVESGGGLVKPGGSLRLSCAASGFTFSSYSMNWVRQAPGKGLEWVSSISSSSSYIYYADSVKGRFTISRDNAKNSLYLQMNSLRAEDTAVYYCARDLGGYAGYYGMDVWGQGTTVTVSS
VL: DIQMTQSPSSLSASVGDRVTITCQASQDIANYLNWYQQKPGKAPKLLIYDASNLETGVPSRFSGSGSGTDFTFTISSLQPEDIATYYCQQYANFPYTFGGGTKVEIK
B7: BIIB-9-3601 (antibody, V domains shown)
VH: EVQLVESGGGLVKPGGSLRLSCAASGFTFSSFSMNWVRQAPGKGLEWVSSISSAGSYIYYADSVKGRFTISRDNAKNSLYLQMNSLRAEDTAVYYCARDVGGYAGYYGMDVWGQGTTVTVSS
VL: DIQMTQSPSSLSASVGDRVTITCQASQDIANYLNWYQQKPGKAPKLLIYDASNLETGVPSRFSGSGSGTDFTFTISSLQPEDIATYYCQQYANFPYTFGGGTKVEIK
B8: BIIB-9-3604 (antibody, V domains shown)
VH: EVQLVESGGGLVKPGGSLRLSCAASGFTFSSYDMVWVRQAPGKGLEWVSSISSGDSYIYYADSVKGRFTISRDNAKNSLYLQMNSLRAEDTAVYYCARDVGGYAGYYGMDVWGQGTTVTVSS
VL: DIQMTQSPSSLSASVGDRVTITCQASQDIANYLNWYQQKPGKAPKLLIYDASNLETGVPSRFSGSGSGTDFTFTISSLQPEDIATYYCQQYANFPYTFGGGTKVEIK
B9: BIIB-9-3617 (antibody, V domains shown)
VH: EVQLVESGGGLVKPGGSLRLSCAASGFTFSSYSMTWVRQAPGKGLEWVSSISSSGTYIYYADSVKGRFTISRDNAKNSLYLQMNSLRAEDTAVYYCARDVGGYAGYYGMDVWGQGTTVTVSS
VL: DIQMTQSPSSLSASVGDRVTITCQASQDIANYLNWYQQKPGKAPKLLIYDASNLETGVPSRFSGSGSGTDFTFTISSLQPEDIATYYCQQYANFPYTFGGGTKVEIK
B10: BIIB-9-3618 (antibody, V domains shown)
VH: EVQLVESGGGLVKPGGSMRLSCAASGFTFSSYEMVWVRQAPGKGLEWVSYISSGSSYIYYADSVKGRFTISRDNAKNSLYLQMNSLRAEDTAVYYCARDVGGYAGYYGMDVWGQGTTVTVSS
VL: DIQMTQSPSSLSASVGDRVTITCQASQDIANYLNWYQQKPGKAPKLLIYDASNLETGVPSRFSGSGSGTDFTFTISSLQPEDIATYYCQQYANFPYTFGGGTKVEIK
B11: BIIB-9-3621 (antibody, V domains shown)
VH: EVQLVESGGGLVKPGGSLRLSCAASGFTFGSYSMAWVRQAPGKGLEWVSGISSSSGYIYYADSVKGRFTISRDNAKNSLYLQMNSLRAEDTAVYYCARDVGGYAGYYGMDVWGQGTTVTVSS
VL: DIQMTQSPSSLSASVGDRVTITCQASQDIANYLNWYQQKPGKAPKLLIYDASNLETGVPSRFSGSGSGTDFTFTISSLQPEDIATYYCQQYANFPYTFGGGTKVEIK
B12: BIIB-9-3647 (antibody, V domains shown)
VH: EVQLVESGGGLVKPGGSLRLSCAASGFTFSSYGMVWVRQAPGKGLEWVSSISSASSYIYYADSVKGRFTISRDNAKNSLYLQMNSLRAEDTAVYYCARDVGGYAGYYGMDVWGQGTTVTVSS
VL: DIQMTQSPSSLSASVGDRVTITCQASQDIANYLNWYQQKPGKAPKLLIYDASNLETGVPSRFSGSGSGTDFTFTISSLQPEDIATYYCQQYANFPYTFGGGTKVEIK
B13: BIIB-9-3649 (antibody, V domains shown)
VH: EVQLVESGGGLVKPGGSLRLSCAASGFTFSSYGMAWVRQAPGKGLEWVSGISSSSSYIYYADSVKGRFTISRDNAKNSLYLQMNSLRAEDTAVYYCARDVGGYAGYYGMDVWGQGTTVTVSS
VL: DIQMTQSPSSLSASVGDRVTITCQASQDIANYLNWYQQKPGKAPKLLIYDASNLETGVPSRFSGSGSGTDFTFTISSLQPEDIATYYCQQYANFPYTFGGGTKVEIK
B14: BIIB-9-3650 (antibody, V domains shown)
VH: EVQLVESGGGLVQPGGSLRLSCAASGFTFGSYEMNWVRQAPGKGLEWVSAISASSSTIYYADSVKGRFTISRDNAKNSLYLQMNSLRAEDTAVYYCARDVGGYAGYYGMDVWGQGTTVTVSS
VL: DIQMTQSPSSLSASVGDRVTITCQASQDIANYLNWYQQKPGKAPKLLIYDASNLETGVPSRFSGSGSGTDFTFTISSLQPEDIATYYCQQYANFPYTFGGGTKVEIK
B15: BIIB-9-3654 (antibody, V domains shown)
VH: EVQLVESGGGLVKPGGSLRLSCAASGFTFESYSMNWVRQAPGKGLEWVSGISSASSYIYYADSVKGRFTISRDNAKNSLYLQMNSLRAEDTAVYYCARDVGGYAGYYGMDVWGQGTTVTVSS
VL: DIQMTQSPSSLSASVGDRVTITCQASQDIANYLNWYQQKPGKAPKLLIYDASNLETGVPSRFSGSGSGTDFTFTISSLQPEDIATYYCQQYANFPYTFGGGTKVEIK
B16: BIIB-9-3753 (antibody, V domains shown)
VH: EVQLVESGGGLVKPGGSLRLSCAASGFTFGSYDMNWVRQAPGKGLEWVSSISDSASYIAYADSVKGRFTISRDNAKNSLYLQMNSLRAEDTAVYYCARDVSGYAGYYGMDVWGQGTTVTVSS
VL: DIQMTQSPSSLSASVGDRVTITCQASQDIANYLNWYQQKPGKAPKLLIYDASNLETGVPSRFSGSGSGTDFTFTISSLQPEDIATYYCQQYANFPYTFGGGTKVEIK
B17: BIIB-9-3754 (antibody, V domains shown)
VH: EVQLVESGGGLVKPGGSLRLSCAASGFTFGSYDMNWVRQAPGKGLEWVSSISSGESYIYYAESVKGRFTISRDNAKNSLYLQMNSLRAEDTAVYYCARDVGGYAGFYGMDVWGQGTTVTVSS
VL: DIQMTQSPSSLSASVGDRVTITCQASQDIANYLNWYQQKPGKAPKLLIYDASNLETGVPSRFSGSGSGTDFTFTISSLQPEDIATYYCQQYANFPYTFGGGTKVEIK
B18: BIIB-9-3756 (antibody, V domains shown)
VH: EVQLVESGGGLVKPGGSLRLSCAASGFTFGSYDMNWVRQAPGKGLEWVSSISSGESYIYYAESVKGRFTISRDNAKNSLYLQMNSLRAEDTAVYYCVRDVGGYAGYYGMDVWGQGTTVTVSS
VL: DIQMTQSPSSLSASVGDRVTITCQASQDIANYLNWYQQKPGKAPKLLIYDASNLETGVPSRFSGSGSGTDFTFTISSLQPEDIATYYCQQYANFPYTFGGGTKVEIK
B19: BIIB-9-3766 (antibody, V domains shown)
VH: EVQLVESGGGLVKPGGSLRLSCAASGFTFGSYDMNWVRQAPGKGLEWVSSISSGESYIYYAESVKGRFTISRDNAKNSLYLQMNSLRAEDTAVYYCARDVGGYAGYYGMDVWGQGTTVTVSS
VL: DIQMTQSPSSLSASVGDRVTITCEASEDISNYLNWYQQKPGKAPKLLIYDASNLQYGVPSRFSGSGSGTDFTFTISSLQPEDIATYYCSQYANFPYTFGGGTKVEIK
B20: BIIB-9-3675 (antibody, V domains shown)
VH: QLQLQESGPGLVKPSETLSLTCTVSGGSISSTSYYWVWIRQPPGKGLEWIGSITASGSTYYNPSLKSRVTISVDTSKNQFSLKLSSVTAADTAVYYCARDKYQDYSFDIWGQGTMVTVSS
VL: DIQMTQSPSSVSASVGDRVTITCRASQGIDSWLAWYQQKPGKAPKLLIYAASSLQSGVPSRFSGSGSGTDFTLTISSLQPEDFATYYCQQANFLPFTFGGGTKVEIK
notes: daughter of BIIB-9-578
B21: BIIB-9-3681 (antibody, V domains shown)
VH: QLQLQESGPGLVKPSETLSLTCTVSGGSISSGSYYWNWIRQPPGKGLEWIGSIQPSGSTYYNPSLKSRVTISVDTSKNQFSLKLSSVTAADTAVYYCARDKYQDYSFDIWGQGTMVTVSS
VL: DIQMTQSPSSVSASVGDRVTITCRASQGIDSWLAWYQQKPGKAPKLLIYAASSLQSGVPSRFSGSGSGTDFTLTISSLQPEDFATYYCQQANFLPFTFGGGTKVEIK
notes: daughter of BIIB-9-578
B22: BIIB-9-3684 (antibody, V domains shown)
VH: QLQLQESGPGLVKPSETLSLTCTVSGGSISSVSYYWNWIRQPPGKGLEWIGSITYSGSTQYNPSLKSRVTISVDTSKNQFSLKLSSVTAADTAVYYCARDKYQDYSFDIWGQGTMVTVSS
VL: DIQMTQSPSSVSASVGDRVTITCRASQGIDSWLAWYQQKPGKAPKLLIYAASSLQSGVPSRFSGSGSGTDFTLTISSLQPEDFATYYCQQANFLPFTFGGGTKVEIK
notes: daughter of BIIB-9-578
B23: BIIB-9-3698 (antibody, V domains shown)
VH: QLQLQESGPGLVKPSETLSLTCTVSGGSIASSSYYWSWIRQPPGKGLEWIGSIRGSGSTYYNPSLKSRVTISVDTSKNQFSLKLSSVTAADTAVYYCARDKYQDYSFDIWGQGTMVTVSS
VL: DIQMTQSPSSVSASVGDRVTITCRASQGIDSWLAWYQQKPGKAPKLLIYAASSLQSGVPSRFSGSGSGTDFTLTISSLQPEDFATYYCQQANFLPFTFGGGTKVEIK
notes: daughter of BIIB-9-578
B24: BIIB-9-3704 (antibody, V domains shown)
VH: QVQLQESGPGLVKPSQTLSLTCTVSGGSISSGAYAWSWIRQHPGKGLEWIGYIYYQGKTYYNPSLKSRVTISVDTSKNQFSLKLSSVTAADTAVYYCARDKYQDYSFDIWGQGTMVTVSS
VL: DIQMTQSPSSVSASVGDRVTITCRASQGIDSWLAWYQQKPGKAPKLLIYAASSLQSGVPSRFSGSGSGTDFTLTISSLQPEDFATYYCQQANFLPFTFGGGTKVEIK
notes: daughter of BIIB-9-578
B25: BIIB-9-3780 (antibody, V domains shown)
VH: QLQLQESGPGLVKPSETLSLTCTVSGGSISSSSYYWGWIRQPPGKGLEWIGSISYSGSTYYNPSLKSRVTISVDTSKNQFSLKLSSVTAADTAVYYCARDKYQDYSVDIWGQGTMVTVSS
VL: DIQMTQSPSSVSASVGDRVTITCRASQGIDSWLAWYQQKPGKAPKLLIYAASSLQSGVPSRFSGSGSGTDFTLTISSLQPEDFATYYCQQANFLPFTFGGGTKVEIK
notes: daughter of BIIB-9-578

What follows are binders tested against T1, FIXa-SM (FIXa+EGR-CMK) (human, UniProt P00740 47-191; P00740 227-461, EGR-CMK (L-Glu-Gly-Arg chloromethyl ketone) covalently bound to the active site) (assay: BLI; class meaning: paragraph 914).
T1 construct: BLI antigen bought from Haematologic Technologies (HCIXA-EGR); also called FIXa with substrate mimic

Binding result, binds:
B1
B2
B3
B4
B5

What follows are binders tested against T2, free FIXa (activated Factor IX) (human, UniProt P00740 47-191; P00740 227-461) (assay: BLI; class meaning: paragraph 914).
T2 construct: BLI antigen bought from Haematologic Technologies (HCIXA-0050); also called factor IXa

Binding result, binds:
B1
B2
B3
B4
B5

What follows are binders tested against T2, free FIXa (activated Factor IX) (assay: yeast display selection and BLI as in Examples 1 and 5).

Binding result, binds:
B6
B7
B8
B9
B10
B11
B12
B13
B14
B15
B16
B17
B18
B19
B20
B21
B22
B23
B24
B25
